# Reference: the DeepSol protein solubility set
# Assay: soluble on expression in E. coli; label from the status in PepcDB or PDB records
row,Sequence,soluble on expression in E. coli
1,MKVAIVGVSGAVGQEFLRVLDERNFPMDELVLFGSKRSAGTTYTFRGKQIEVKLLQHNDDFKGVDIAFTSAGAGTSKEFEKTITKYGAVMIDNSSAFRMDADVPLVVPEVNAADALERPRGVIANPNCTTIQMVVALKAIEQLSHIKTVHVSTYQAASGAGAAAMDELYEQYRQVLANEPVTVEKFAYQLAFNLIPQIDVFTENGYTKEEMKMYNETRKIMHSDVKVSATCVRVPALRAHSESIWVETERPISVEEAREAFAKGEGLVLQDNPAEKEYPMPLFLAGKDPVYVGRIRKDLTNENGLTFWIVGDQIKKGAALNAVQIAEYLIKVKNV,not soluble
2,MKVFDVHKFDMKKEQDFLQVQFNLKNRINLSPTIHPDSINTGAGVDLAYWEQDGEPYGVCCIIVIDADTKEVIEKVHSMGRISVPYVSGFLAFRELPLIIEAAKKLETEPDVFLFDGNGYLHYNHMGVATHAAFFLGKPTIGIAKTYLKIKGCDFVTPEIEVGAYTDIIIDGEVYGRALRTRRDVKPIFLSCGNYIDLDSSYQITMSLINQESRLPIPVRLADLETHVLRTFYQKNHVLEHHHHHH,soluble
3,MKVFTEKIPNIPWEERPEGYTGPVWRYSKNPIIGRNPVPKGARVFNSAVVPYNGEFVGVFRIDHKNTRPFLHFGRSKDGINWEIEPEEIQWVDVNGEPFQPSYAYDPRVVKIEDTYYITFCTDDHGPTIGVGMTKDFKTFVRLPNAYVPFNRNGVLFPRKINGKYVMLNRPSDNGHTPFGDIFLSESPDMIHWGNHRFVLGRSSYNWWENLKIGAGPYPIETSEGWLLIYHGVTLTCNGYVYSFGAALLDLDDPSKVLYRSRYYLLTPEEEYETVGFVPNVVFPCAALCDADTGRVAIYYGAADTHVALAFGYIDEIVDFVKRNSM,not soluble
4,MKVGIVGGGIVGLFTAYYLAKEGIKDIIIYEKGFLGAGSIHAAGLIEPYRFDKINTLSMIKKMLKYKMNGSTDIKEVDKLWLVELIKNLEKDPPGEAWDTMREMAKFSLSEYKRIAEEKNDFDYHEDGLLELYYNSKEFESGIEDEKKSPFNPKFEIEEIKGFAGGLFFPELSRISTEKFIDRISREIVSNIKVKNEEVIKVSDEGYIDGEKYDLVVVAAGIWSRILKIPLTAFKGYGYRVKGVSKLNRAAVIVDYGLAISPLSDHIKITGGFDADFSIDSKRAEDFLKKAEELVDIQYIIDLNMGFRPCSPDGFPVIGKRNNLVLVTGACRLGWSYGPAMGRYATDLALGKAKDLGYISRYYHELEHHHHHH,not soluble
5,MKVHNDFTLYWRVFPSGKKVVYYYAYDESGKRLMGRSTGETNLTSARVKCNKLLKEGELVPNKNHVPTFAEYAEGWWEWETCAYLKKRRKRYSLTQTYADNNKKNLKNHLLPFFGNMPMNKITKIEVEDFFDALIEKEYQNTSINGFYGTLKTMLIEAVERNIIPKDPTDKMGRLVNDRRAIKIITPEEFKKLFVGDWRRVWESDRLSYTANKLAALTGMRASEVVGLKGSFVYDEHIYLCMQYDDYGYRPTKTKDKHNIPLTSDMINELKELKRMNGDGFVFSLDGGATPICRNTVYKHFHRALRNIGITEDEISERHLHLHAWRHFFNTEMLKGGLTVTQAQAVTGHKSERMTEWYCHFDPTEFAKAKEVQEALLRPAQKKAAKEEKAGAKTSGNKDKAVKVIPFPRKENKTAGEETQASLILPLPIFKAPAGLRRELLFLPFQHFPFFFLNCRFVPFLSATGHGIFKAGMGESMEEYLTIFEVAELTKYTVGTLRKFVQKRRVAFHKWGRSLRFRRAEIELWMKMGCGKAVYLPADGDGQTKASAMEIGAES,not soluble
6,MKVIKGLTAGLIFLFLCACGGQQIKDPLNYEVEPFTFQNQDGKNVSLESLKGEVWLADFIFTNCETICPPMTAHMTDLQKKLKAGNIDVRIISFSVDPENDKPKQLKKFAANYPLSFDNWDFLTGYSQSEIEEFALKSFKAIVKKPEGEDQVIHQSSFYLVGPDGKVLKDYNGVENTPYDDIISDVKSASTLKLEHHHHHH,not soluble
7,MKVKEHCGIVGVYADNSPMISYESLKLLQHRGQESAGITYRKDGSLVTMKGLGLVEEALDPRLLPNAKLSIGHVRYSTTGKGSLDEAQPLSNGKIAIAFNGTITNYFKFGTSTDTEFILKVLSEAPNIKEGIRRLVDLADGAYSLVVLTNEGELIGFRDPKGFRPLVLGKINNGYIIASEDSVIRQLGGKPLRDVKPGEMIYIKDGEIESEVISRDRVSFCSFEYIYFARPDSIIDGVSVYNSRIKLGEILAENHGVDADVAIPVPESSIPIAIGFSRKSKIPMEYGLIRTLVAKRSFIMPTQDKRNAVLEEKFGIVKSVVENKKVVVIDDSIVRGNTMRKIVRMIRDNGAKEVHVRIGSPKVKYPCYMGIDFPLSKELIASEKDEKEIAKYIGADSVEFLTVEEMIKAIGRPDLCHACFSGVYPLKFSYNLQVLESIFKKVS,soluble
8,MKVLFLTANEFEDVELIYPYHRLKEEGHEVYIASFERGTITGKHGYSVKVDLTFDKVNPEEFDALVLPGGRAPERVRLNEKAVSIARKMFSEGKPVASICHGPQILISAGVLRGRKGTSYPGIKDDMINAGVEWVDAEVVVDGNWVSSRVPADLYAWMREFVKLLK,soluble
9,MKVLIDTNVILDVLLNRASFVQDAIAVLELTCGNIQAYVSASAITDIYYIAYKELRDKIRVKNLIKTLLQIITVAGISDKEIMSAIDSDWADFEDSLQNAVAESHDCSMIITRNISDFNGSNLQIISPKDFIVQFTHLEHHHHHH,not soluble
10,MKVSKIYTTIDAHVAGEPLRIITGGVPEIKGETQLERRAYCMEHLDYLREILMYEPRGHHGMYGCIITPPASAHADFGVLFMHNEGWSTMCGHGIIAVITVGIETGMFEVTGEKQKFIIDSPAGEVIAYATYSGSEVESVSFENVPSFVYKKDVPIKIDSYEFQVDIAFGGAFYAVVDSKEFGLKVDFKDLSAIQMWGGKIKHYIESKMEVKHPLEEGLKGIYGVIFSDDPKEKDATLRNVTIFADGQVDRSPCGTGTSARIATLFAKDALQKGEIFVHECITDGKFEGEVLSVTAVHTYEAVVPKVTGNAFITGFHQFVVDPRDDLNRGFLLGLEHHHHHH,not soluble
11,MKVTNLFKDKVDAISAHQSEFMNWMSPTLRDYWSDFLGKAQNSFLFSNVRDHNQPAVNEEVAPQPAPIVLQPEAQKLYDELSGKIGEVIHTGDWVHVSQERINQFGAVTEDMQWIHTDPERASVESPFKTTIAHGFLTLALLPKLTDSVDADKPLFPTAKLVVNLGLNQVRFPYPVKAGNNVRAVSTLTKVTPIKKGLEIEREIKVEIEGVRRPGAVVVSVIQLHFLEHHHHHH,soluble
12,MKVVRVCGGFGNQLFQYAFYLAVKHKFNETTKLDIHDMASYELHNGYELERIFNLNENYCSAEEKLAVQSTKNIFTKLLKEIKKYTPFIPRTYIKEKKHLHFSYQEVDLGTKDTSIYYRGSWQNPQYFNSIASEIREKLTFPEFTEPKSLALHQEISEHETVAVHIRRGDYLKHKALGGICDLPYYQNAIKEIEGLVEKPLFVIFSDDITWCRANINVEKVRFVDWNSGEQSFQDMHLMSLCTHNIIANSSFSWWGAWLNANPNKIVISPNKWIHYTDSMGIVPSEWIKVETSILEHHHHHH,not soluble
13,MKVWIKASALLTLAGLTACSASPTGRNQILMFSDQEMSSLGAKSFDQMKKDIPISKDKKTNAYVQCVAKQITNAIPPQAGFKDWEVVVFDSDQVNAFALPGGKIGVYTGLLKVAKNQDQLATVIGHEVAHVLAEHSNERLSQSQLANAGLSLANVAIGASEYKQYQQLTMAALGVGVQYGVILPYGRTQESEADIVGLEYMAKAGFNPNQSVDLWKNMSAASGGAQPPEFFSTHPSHSTRIKDLQATINKLPKYNVKAPKCGLEHHHHHH,not soluble
14,MKVYEFGKKENPAIMLLPGTCCHWKNNFSNVIDLLIEDFFVVCVSYDGFDETEKSEFQDMVTEVRKIENYINERFQGKIHAVYGCSLGG,not soluble
15,MKYIIIGLGNYGHVLAEELSTLGHEVIGADLDEGRVDSIKDKIATAFVIDATDEQSLSVLPLNSVDMVIVAIGENFGASIRVVAMLKQKQVKHIYARAIDGVHKAVLEAFGLEKILTPEEDAARSLVQLLDFGTKMETFRVDSEYYVVKFNVPEKFVGYFVNELNLDEEFNLKLIGLKRSNTIKNCLGISLVEHKVVNELPEDAKIRPDDVLVCYGKYSDFQKLWKALLEHHHHHH,soluble
16,MKYQVLLYYKYTTIEDPEAFAKEHLAFCKSLNLKGRILVATEGINGTLSGTVEETEKYMEAMQADERFKDTFFKIDPAEEMAFRKMFVRPRSELVALNLEEDVDPLETTGKYLEPAEFKEALLDEDTVVIDARNDYEYDLGHFRGAVRPDIRSFRELPQWIRENKEKFMDKKIVTYCTGGIRCEKFSGWLLKEGFEDVAQLHGGIANYGKNPETRGELWDGKMYVFDDRISVEINHVDKKVIGKDWFDGTPCERYINCANPECNRQILTSEENEHKHLGGCSLECSQHPANRYVKKHNLTEAEVAERLALLEAVEVLEHHHHHH,soluble
17,MLAAFISRVLRRVAQKSARRVLVASRNSSNDATFEIKKCDLYLLEEGPPVTTVLTRAEGLKYYRMMLTVRRMELKADQLYKQKFIRGFCHLCDGQEACCVGLEAGINPSDHVITSYRAHGVCYTRGLSVRSILAELTGRRGGCAKGKGGSMHMYTKNFYGGNGIVGAQGPLGAGIALACKYKGNDEICLTLYGDGAANQGQIAEAFNMAALWKLPCVFICENNLYGMGTSTERAAASPDYYKRGNFIPGLKVDGMDVLCVREATKFAANYCRSGKGPILMELQTYRYHGHSMSDPGVSYRTREEIQEVRSKRDPIIILQDRMVNSKLATVEELKEIGAEVRKEIDDAAQFATTDPEPHLEELGHHIYSSDSSFEVRGANPWIKFKSVS,soluble
18,MLAGLQKTTLVNFPRRVAAAVFLPGCNIRCPYCHNAELALASPSSFTANQESSNDYYELSEIYTFLERRKNLISGLVISGGEPFMSPALFELIERAKSLNLAVKIDTNGLFPERIEEVLRSSNLQPDMIAIDVKTSPERYGELLASKTDSAAKKAKTALLKTLDILKSNTEKTEVEYRTVLAPPLVSEDEIKKIASLLPKNARWRLAQFVPGTCLNPEWNSVEPYPLSQAQALTAIAKSLIPDTELR,not soluble
19,MLARSARLLHSAELAANAIRAASGAPATAAAAEASFPSTDDVAAKTKKTGNRIKTFEIYRFNPEAPGAKPTVQKFDVDLDQCGTMILDALIKIKNEVDPTLTFRRSCREGICGSCAMNIGGQNTLACICKIDSDTSKSTKIYPLPHMFVVKDLVPDMNLFYAQYASIQPWIQKKTPLTLGEKQMHQSVAERDRLDGLYECILCACCSTSCPSYWWNADKYLGPAVLMQAYRWVIDSRDDYATERLHRMHDSFSAFKCHTIMNCTKTCPKHLNPAKAIGEIKSLLTGFTSKPAAEPSAF,not soluble
